For orientation: half-life means the time needed for the level to fall by half in the phase considered. One may read the Tmax as the time at which the peak concentration occurs.

Read-outs that look alike come from different tables or passages of the source.

The conditions of series [1]: cited from earlier work; for half-life in human serum: following subcutaneous administration.
Series [2] in a line: Predicted human plasma concentration profiles of GLP-1 agonists dosed by periodic injection, model fitted to published human pharmacokinetic data. Particulars: for peak-trough / peak relative to mean: periodic injection dosed according to prescribers' information; for d[drug]/dt: periodic injection, percent of steady state mean concentration per hour. The text has this: Two compartments (SC and Central) are contemplated. A constant fraction of SC drug enters the Central compartment per unit time (defined by Ka). A constant fraction of Central drug is eliminated per unit time (defined by K). Central drug concentration (equal to plasma drug concentration) is an amount of drug in the Central compartment (A) diluted into its volume of distribution (Vd).
Plasma concentrations are each expressed as a fraction of […] plasma concentration i.e., steady state concentration (Css). The predictions are based upon published human pharmacokinetic data, with either raw plasma concentration data or data digitized from published figures for a single subcutaneous dose. The plasma concentrations were fitted to a model describing “absorption+single component decay” for each agent, as depicted in FIG. 13, based upon a rate constant for absorption from a subcutaneous depot into the plasma, and another rate constant for elimination from the plasma compartment. Data were fit using non-linear regression via an iterative least-squares method within Prism v7.0 (GraphPad Software Inc., San Diego, Calif.).
The derived plasma concentration profile for a single subcutaneous bolus was extended from the time of dosing until plasma concentrations were negligible. This profile was serially added to itself, staggered by a period determined by the indicated dose interval, and in a magnitude determined by the recommended dose increases. The numeric sum is shown as the black line in each plot.
(§1) Rate of change of drug concentration, particularly positive rate of change, d[drug]/dt, was derived as the first differential of the plasma concentration profile summed as described above. The d[drug]/dt was expressed with “d[drug]” units reduced to percent of steady state mean concentration of indicated doses, to enable comparisons between agents with differing potencies and pharmacokinetics. The “dt” units were hours. The X-axes in FIGS. 10 and 12 represent the d[drug]/dt thus obtained, in units of “% of steady-state mean (i.e., Css) per hour”.

The conditions of series [3]: patients, cited from earlier work.
For series [4], the target named is T1, human GLP-1 receptors (Homo sapiens, UniProt P43220).
T1 construct: expressed in transfected cells; host or cells: CHO-K1 (transient transfection, Lipofectamine 2000)
Kind of series: Albumin binding assessed by potency shift: cAMP activation of GLP-1 receptors expressed in CHO-K1 cells at different HSA concentrations. The series is classed as cell-based. The following applies: potency decreased with increasing albumin concentration; final HSA 0-4%. The text has this:
EC50 values were converted to pEC50 values using the formula: pEC50=−Log(EC50).

Series [5] in a line: Estimated d[drug]/dt if administered via single subdermal placement of an osmotic drug delivery device. On the set-up: species or system human.
Description: as §1

The mark [6] stands for this setting: periodic injection of aqueous solution.
[7] abbreviates: periodic injection (weekly aqueous solution).

T1 sequence (P43220 24-463): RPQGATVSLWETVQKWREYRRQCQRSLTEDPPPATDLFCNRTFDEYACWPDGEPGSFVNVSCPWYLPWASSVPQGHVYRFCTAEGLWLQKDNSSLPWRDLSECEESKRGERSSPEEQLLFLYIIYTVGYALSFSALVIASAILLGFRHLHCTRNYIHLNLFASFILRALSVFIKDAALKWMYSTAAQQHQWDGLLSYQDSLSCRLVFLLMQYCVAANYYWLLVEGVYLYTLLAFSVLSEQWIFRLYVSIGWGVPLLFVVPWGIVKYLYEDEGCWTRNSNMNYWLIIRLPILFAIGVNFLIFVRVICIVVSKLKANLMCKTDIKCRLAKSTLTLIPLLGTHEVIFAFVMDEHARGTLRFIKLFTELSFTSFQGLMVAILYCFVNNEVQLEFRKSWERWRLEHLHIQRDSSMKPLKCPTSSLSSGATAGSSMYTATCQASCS

For GLP-1, the t1/2 in series [1] (peptidase prone GLP-1, by contrast to exenatide) was about 3.4 min.

albiglutide: the peak-trough in series [2] was 28 % of peak. The half-life in series [1] (in humans) was 140 to 190 h.

With “des-Pro^36-exendin-4(1-39)-Lys6-NH2 [lixisenatide]”, in series [2], the “peak relative to mean” value is listed as 2.4 × mean, the peak-trough is 97 % of peak and the “d[drug]/dt” value is listed as 204 % mean/hour. In series [2] (setting [6]), the Tmax was about 1.7 h and the t1/2 is about 3.0 h. Moreover, in series [3] (daily injection, in 24 weeks), the nausea was 26% and the vomiting is 11%. Moreover, in series [1], the “half-life in human serum” value is “approximately several hours”. The terminal half-life entry in series [1] (humans, subcutaneous administration) is “approximately 3 h”.

For the substance dulaglutide, the peak-trough in series [2] was 63 % of peak.

For the substance semaglutide, in series [2] (setting [7]), the Tmax was about 76.8 h and the t1/2 was about 199 h. Also, in series [2], the “peak relative to mean” value is on record as 1.12 × mean, the peak-trough is recorded as 26 % of peak and the “d[drug]/dt” value is on record as 3.3 % mean/hour. Moreover, the “albumin (HSA) concentration at mid-range of the potency change” value in series [4] was about 0.6%. Also, the “d[drug]/dt, times lower than d[exenatide]/dt” value in series [5] was 35 ×. In series [3] (weekly injection), the nausea reported was 22% and the withdrawn is recorded as 6%. In addition, in series [1], the “half-life in human serum” value was about 165 h.

The values are drawn from US20200188479A1, “APPARATUS AND METHODS FOR ADMINISTRATION OF A NAUSEOGENIC COMPOUND FROM A DRUG DELIVERY DEVICE” (INTARCIA THERAPEUTICS, INC., priority 2017, published 2020).
